One assay concerns the target epas1_mouse Epas1 (UniProt P97481).
The target in assay [1] is arnt_mouse Arnt (UniProt P53762).
Assay [2] has the same target. This is another data set of the same source.

Hif1a, Q61221-1, sequence (Q61221 whole entry): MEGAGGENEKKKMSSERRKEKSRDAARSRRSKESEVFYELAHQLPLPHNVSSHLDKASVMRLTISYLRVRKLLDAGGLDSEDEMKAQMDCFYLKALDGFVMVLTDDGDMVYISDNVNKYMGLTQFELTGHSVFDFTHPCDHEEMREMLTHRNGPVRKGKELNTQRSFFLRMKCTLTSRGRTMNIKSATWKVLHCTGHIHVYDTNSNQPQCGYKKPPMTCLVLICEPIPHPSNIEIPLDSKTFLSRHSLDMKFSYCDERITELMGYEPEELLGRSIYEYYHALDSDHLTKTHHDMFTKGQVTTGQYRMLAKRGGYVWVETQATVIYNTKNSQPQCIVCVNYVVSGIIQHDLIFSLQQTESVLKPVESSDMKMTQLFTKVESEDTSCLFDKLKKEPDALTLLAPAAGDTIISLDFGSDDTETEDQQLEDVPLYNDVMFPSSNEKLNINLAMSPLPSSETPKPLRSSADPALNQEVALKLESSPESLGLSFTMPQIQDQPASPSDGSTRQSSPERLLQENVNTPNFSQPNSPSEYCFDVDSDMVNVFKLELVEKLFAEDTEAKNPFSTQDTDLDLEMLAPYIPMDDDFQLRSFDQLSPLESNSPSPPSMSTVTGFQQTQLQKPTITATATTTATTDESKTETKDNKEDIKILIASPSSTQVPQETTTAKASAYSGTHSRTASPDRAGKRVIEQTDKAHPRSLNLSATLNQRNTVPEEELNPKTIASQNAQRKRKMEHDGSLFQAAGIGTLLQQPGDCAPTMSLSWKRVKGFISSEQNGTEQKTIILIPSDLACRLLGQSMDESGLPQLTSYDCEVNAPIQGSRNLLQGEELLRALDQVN
Hypoxia-inducible factor 1-alpha (Mus musculus), Q61221-1 R170A;V191D, sequence (Q61221 whole entry R170A/V191D): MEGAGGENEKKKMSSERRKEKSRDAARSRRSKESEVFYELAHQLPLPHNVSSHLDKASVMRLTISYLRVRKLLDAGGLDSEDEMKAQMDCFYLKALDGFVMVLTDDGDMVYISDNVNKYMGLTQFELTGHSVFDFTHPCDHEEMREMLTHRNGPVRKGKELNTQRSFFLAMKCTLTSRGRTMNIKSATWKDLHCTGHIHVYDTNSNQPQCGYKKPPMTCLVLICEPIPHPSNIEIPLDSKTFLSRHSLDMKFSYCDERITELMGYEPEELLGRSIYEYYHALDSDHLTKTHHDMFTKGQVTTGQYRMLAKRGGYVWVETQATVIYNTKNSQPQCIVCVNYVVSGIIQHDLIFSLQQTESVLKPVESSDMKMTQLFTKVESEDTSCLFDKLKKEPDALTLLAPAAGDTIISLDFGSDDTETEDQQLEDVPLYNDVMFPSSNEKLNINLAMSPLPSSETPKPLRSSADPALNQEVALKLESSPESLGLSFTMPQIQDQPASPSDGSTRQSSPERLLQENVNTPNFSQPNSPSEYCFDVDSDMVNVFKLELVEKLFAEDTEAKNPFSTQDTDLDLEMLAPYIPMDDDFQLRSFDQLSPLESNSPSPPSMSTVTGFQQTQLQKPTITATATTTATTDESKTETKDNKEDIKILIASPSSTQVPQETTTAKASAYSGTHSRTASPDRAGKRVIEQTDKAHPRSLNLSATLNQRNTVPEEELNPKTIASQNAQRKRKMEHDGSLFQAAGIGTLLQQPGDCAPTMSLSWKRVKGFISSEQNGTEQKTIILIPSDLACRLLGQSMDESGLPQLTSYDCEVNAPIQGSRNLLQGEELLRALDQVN
Hypoxia-inducible factor 1-alpha (Mus musculus), Q61221-1 V191D, sequence (Q61221 whole entry V191D): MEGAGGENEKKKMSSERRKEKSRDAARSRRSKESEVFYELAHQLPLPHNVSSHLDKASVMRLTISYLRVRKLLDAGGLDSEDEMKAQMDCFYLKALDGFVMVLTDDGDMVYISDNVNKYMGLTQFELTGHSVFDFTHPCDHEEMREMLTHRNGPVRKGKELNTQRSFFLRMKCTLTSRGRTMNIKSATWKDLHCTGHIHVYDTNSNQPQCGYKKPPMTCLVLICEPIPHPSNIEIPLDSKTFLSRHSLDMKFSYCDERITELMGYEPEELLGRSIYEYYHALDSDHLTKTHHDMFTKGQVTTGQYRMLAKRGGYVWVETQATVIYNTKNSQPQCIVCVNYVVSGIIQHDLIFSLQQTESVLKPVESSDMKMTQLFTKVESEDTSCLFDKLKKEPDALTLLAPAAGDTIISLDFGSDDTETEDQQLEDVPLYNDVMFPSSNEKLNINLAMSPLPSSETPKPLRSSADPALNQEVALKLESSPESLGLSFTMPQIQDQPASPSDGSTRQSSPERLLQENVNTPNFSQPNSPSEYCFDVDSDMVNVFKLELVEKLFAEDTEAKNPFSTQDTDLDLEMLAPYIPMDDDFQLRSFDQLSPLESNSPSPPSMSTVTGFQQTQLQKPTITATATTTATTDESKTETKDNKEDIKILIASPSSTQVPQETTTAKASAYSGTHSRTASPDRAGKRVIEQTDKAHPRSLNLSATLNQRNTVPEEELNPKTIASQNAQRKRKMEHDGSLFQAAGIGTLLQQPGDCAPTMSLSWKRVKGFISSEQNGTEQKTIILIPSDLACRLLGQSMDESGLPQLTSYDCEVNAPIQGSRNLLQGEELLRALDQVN
Hypoxia-inducible factor 1-alpha (Mus musculus), Q61221-1 R170A, sequence (Q61221 whole entry R170A): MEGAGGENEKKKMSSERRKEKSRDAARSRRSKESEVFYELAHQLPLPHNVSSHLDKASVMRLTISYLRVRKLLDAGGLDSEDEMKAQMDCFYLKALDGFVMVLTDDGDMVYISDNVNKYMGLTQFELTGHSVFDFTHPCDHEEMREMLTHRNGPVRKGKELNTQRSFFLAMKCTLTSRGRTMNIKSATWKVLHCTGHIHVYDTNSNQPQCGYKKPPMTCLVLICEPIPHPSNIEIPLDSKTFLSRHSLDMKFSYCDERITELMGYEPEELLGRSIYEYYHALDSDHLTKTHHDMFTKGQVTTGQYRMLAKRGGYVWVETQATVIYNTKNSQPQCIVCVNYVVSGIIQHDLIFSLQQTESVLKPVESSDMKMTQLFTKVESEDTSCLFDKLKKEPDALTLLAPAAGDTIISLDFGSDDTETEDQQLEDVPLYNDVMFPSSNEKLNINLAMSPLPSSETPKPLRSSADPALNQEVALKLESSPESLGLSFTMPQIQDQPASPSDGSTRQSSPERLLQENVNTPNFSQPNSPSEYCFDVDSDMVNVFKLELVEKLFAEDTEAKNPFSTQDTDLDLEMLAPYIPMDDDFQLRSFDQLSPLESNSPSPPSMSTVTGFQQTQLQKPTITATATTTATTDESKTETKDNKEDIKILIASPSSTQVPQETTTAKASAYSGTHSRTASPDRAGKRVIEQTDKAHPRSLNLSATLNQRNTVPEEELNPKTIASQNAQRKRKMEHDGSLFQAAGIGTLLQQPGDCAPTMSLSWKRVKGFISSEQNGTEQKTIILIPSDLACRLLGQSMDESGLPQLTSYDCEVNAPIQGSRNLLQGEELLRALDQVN

With “Aryl hydrocarbon receptor nuclear translocator (Mus musculus), P53762 A171D”, the “effect of a mutation on the interaction” value was “disrupting interaction strength” with epas1_mouse Epas1 and “decreasing interaction strength” in the assay with Hif1a, Q61221-1.
For “Aryl hydrocarbon receptor nuclear translocator (Mus musculus), P53762 I168D”, the “effect of a mutation on the interaction” value with epas1_mouse Epas1 is “disrupting interaction strength”; with Hif1a, Q61221-1, “disrupting interaction strength”.
For “Aryl hydrocarbon receptor nuclear translocator (Mus musculus), P53762 I264D”, the “effect of a mutation on the interaction” value in the assay with epas1_mouse Epas1 is “disrupting interaction strength”; with Hif1a, Q61221-1, “decreasing interaction strength”.
As for “Aryl hydrocarbon receptor nuclear translocator (Mus musculus), P53762 I264D;V305D”, the “effect of a mutation on the interaction” value is reported as “decreasing interaction strength” with epas1_mouse Epas1 and “decreasing interaction strength” with Hif1a, Q61221-1.
For “Aryl hydrocarbon receptor nuclear translocator (Mus musculus), P53762 L112E”, the “effect of a mutation on the interaction” value with epas1_mouse Epas1 was “disrupting interaction strength”; in the assay with Hif1a, Q61221-1 it was “disrupting interaction strength”.
With “Aryl hydrocarbon receptor nuclear translocator (Mus musculus), P53762 L112E;L132E”, the “effect of a mutation on the interaction” value with epas1_mouse Epas1 is “disrupting interaction strength”; in the assay with Hif1a, Q61221-1 it was “disrupting interaction strength”.
On to “Aryl hydrocarbon receptor nuclear translocator (Mus musculus), P53762 L132E”, for which the “effect of a mutation on the interaction” value is on record as “disrupting interaction strength” in the assay with epas1_mouse Epas1 and “disrupting interaction strength” with Hif1a, Q61221-1.
With “Aryl hydrocarbon receptor nuclear translocator (Mus musculus), P53762 L167E”, the “effect of a mutation on the interaction” value with epas1_mouse Epas1 was “disrupting interaction strength”; with Hif1a, Q61221-1, “decreasing interaction strength”.
Turning to “Aryl hydrocarbon receptor nuclear translocator (Mus musculus), P53762 L167E;A171D”, the “effect of a mutation on the interaction” value in the assay with epas1_mouse Epas1 is listed as “disrupting interaction strength”; with Hif1a, Q61221-1, “decreasing interaction strength”.
For “Aryl hydrocarbon receptor nuclear translocator (Mus musculus), P53762 R266A”, the “effect of a mutation on the interaction” value in the assay with epas1_mouse Epas1 is reported as “decreasing interaction strength”.
As for “Aryl hydrocarbon receptor nuclear translocator (Mus musculus), P53762 R366A”, the “effect of a mutation on the interaction” value is recorded as “decreasing interaction strength” with epas1_mouse Epas1 and “decreasing interaction strength” with Hif1a, Q61221-1.
As to “Aryl hydrocarbon receptor nuclear translocator (Mus musculus), P53762 R366A;N448A”, the “effect of a mutation on the interaction” value with epas1_mouse Epas1 is “disrupting interaction strength”; in the assay with Hif1a, Q61221-1 it was “disrupting interaction strength”.
“Aryl hydrocarbon receptor nuclear translocator (Mus musculus), P53762 V136D”: the “effect of a mutation on the interaction” value is recorded as “disrupting interaction strength” with epas1_mouse Epas1 and “disrupting interaction strength” with Hif1a, Q61221-1.
For “Aryl hydrocarbon receptor nuclear translocator (Mus musculus), P53762 V305D”, the “effect of a mutation on the interaction” value with epas1_mouse Epas1 was “decreasing interaction strength”; in the assay with Hif1a, Q61221-1, “decreasing interaction strength”.
With “Endothelial PAS domain-containing protein 1 (Mus musculus), P97481 F169D”, the “effect of a mutation on the interaction” value in the assay with arnt_mouse Arnt [1] is given as “decreasing interaction strength”.
As for “Endothelial PAS domain-containing protein 1 (Mus musculus), P97481 H194A”, the “effect of a mutation on the interaction” value in the assay with arnt_mouse Arnt [1] is “decreasing interaction strength”.
For the substance “Endothelial PAS domain-containing protein 1 (Mus musculus), P97481 R171A”, the “effect of a mutation on the interaction” value with arnt_mouse Arnt [1] is reported as “decreasing interaction strength”.
On the same count and under the same terms, under “Endothelial PAS domain-containing protein 1 (Mus musculus), P97481 R171A;V192D” stands “disrupting interaction strength”; under “Endothelial PAS domain-containing protein 1 (Mus musculus), P97481 V192D”, “decreasing interaction strength”.
As to “Hypoxia-inducible factor 1-alpha (Mus musculus), Q61221-1 R170A”, the “effect of a mutation on the interaction” value in the assay with arnt_mouse Arnt [2] is reported as “decreasing interaction strength”.
On the same count and under the same terms, under “Hypoxia-inducible factor 1-alpha (Mus musculus), Q61221-1 R170A;V191D” stands “decreasing interaction strength”; under “Hypoxia-inducible factor 1-alpha (Mus musculus), Q61221-1 V191D”, “decreasing interaction strength”.

These data come from IntAct's records for PubMed 26245371.
